Measured values: patent US20050048572A1 (Genentech, published 2005)

Legend:
[1] = target: T1, Human VEGF 165 (human, UniProt P15692 27-191); experiment: SPR (BIAcore-3000), VEGF165 immobilised on CM-5 chip, IgG in solution, 37 C, 1:1 Langmuir fit
T1 construct: mature; The 165-residue isoform without signal peptide; made in E. coli as in Simmons & Yansura 1996
Protocol: (§1) A CM-5 biosensor chip (Biacore, Inc.) was activated according to the manufacturer's instructions for amine coupling. […] Unreacted groups were blocked with 1 M ethanolamine. […] The kinetics of IgG variants binding to immobilized VEGF were measured with 2-fold serial dilutions beginning with 500 nM IgG in running buffer (PBS, 0.05% Tween, 0.01% sodium azide) at a flow rate of 20 μl/min (see FIG. 12). Binding measurements were carried out at 37° C. Regeneration of the chip after each cycle was with 20 mM HCl, followed by washing, an injection of 100 mM Tris pH 8.0, and additional washing.
(§2) The kinetic curves were fit to a 1:1 Langmuir binding model using BIAcore evaluation software version 3, which calculated association (kₒₙ) and dissociation (koff) rates. An apparent equilibrium constant, Kd, was calculated from koff/kₒₙ for each variant (Table 7).

[2] = target: T1, Human VEGF 165; experiment: SPR (BIAcore-3000), apparent Kd from koff/kon, VEGF165 immobilised, 37 C
Protocol: as §1, §2

T1 sequence (P15692 other isoform, or with tags, fused parts or gaps): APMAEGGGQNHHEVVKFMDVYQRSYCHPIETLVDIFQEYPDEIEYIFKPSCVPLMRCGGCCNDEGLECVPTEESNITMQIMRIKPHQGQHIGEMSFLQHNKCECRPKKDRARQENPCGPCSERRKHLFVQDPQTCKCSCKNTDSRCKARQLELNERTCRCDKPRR

B1: anti-VEGF antibody VNERK, full-length, wild type hinge, produced in E. coli (antibody, V domains shown)
VH: EVQLVESGGGLVQPGGSLRLSCAASGYTFTNYGINWVRQAPGKGLEWVGWINTYTGEPTYAADFKRRFTFSLDTSKSTAYLQMNSLRAEDTAVYYCAKYPHYYVNERKSHWYFDVWGQGTLVTVSS
VL: DIQLTQSPSSLSASVGDRVTITCSASQDISNYLNWYQQKPGKAPKVLIYFTSSLHSGVPSRFSGSGSGTDFTLTISSLQPEDFATYYCQQYSTVPWTFGQGTKVEIKR
notes: Full-length aglycosylated human IgG1 made in E. coli; also called VNERK wild type; VNERK hinge wild type
koff [1]: 5.9e-06 s⁻¹
kon [1]: 23000 M⁻¹ s⁻¹
Kd [2]: 0.25 nM
